Source: paper PMC10843684 (Molecular cell, 2023)

Target: T1, Gid2 (RING subunit of the GID E3 catalytic module) (S. cerevisiae, UniProt Q12508 1-421)
T1 sequence: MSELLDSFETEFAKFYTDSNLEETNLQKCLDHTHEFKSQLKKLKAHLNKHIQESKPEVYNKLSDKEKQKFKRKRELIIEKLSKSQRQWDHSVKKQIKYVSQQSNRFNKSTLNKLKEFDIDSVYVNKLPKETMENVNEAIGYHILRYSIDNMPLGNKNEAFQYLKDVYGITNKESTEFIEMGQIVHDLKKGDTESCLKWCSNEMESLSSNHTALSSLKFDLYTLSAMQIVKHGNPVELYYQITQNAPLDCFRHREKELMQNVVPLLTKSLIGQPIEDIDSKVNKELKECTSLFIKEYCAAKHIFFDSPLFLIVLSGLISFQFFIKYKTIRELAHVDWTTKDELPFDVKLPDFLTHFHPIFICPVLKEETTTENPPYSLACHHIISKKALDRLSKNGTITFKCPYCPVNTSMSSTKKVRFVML
Test: cryo-EM structure

B1: Ubc8 C85K, insect cell-expressed and phosphorylated (the E2 chain of the Ubc8~ubiquitin mimic) (enzyme, S. cerevisiae)
chain: MSSSKRRIETDVMKLLMSDHQVDLINDSMQEFHVKFLGPKDTPYENGVWRLHVELPDNYPYKSPSIGFVNKIFHPNIDIASGSIKLDVINSTWSPLYDLINIVEWMIPGLLKEPNGSDPLNNEAATLQLRDKKLYEEKIKEYIDKYATKEKYQQMFGGDNDSDDSDSGGDLQEEDSDSDEDMDGTGVSSGDDSVDELSEDLSDIDVSDDDDYDEVANQ
modifications: heterogeneously phosphorylated C-terminal extension (phosphoserines 202 and 207 modelled); K85 isopeptide-bonded to ubiquitin
  binding result: binds
